Measurements from patent US20240209104A1 (SHANGHAI ACEMAB, published 2024).

Tests used:
hOX40-EC-His [1] = target: T1, hOX40-EC-His (human, UniProt P43489 29-214); assay: ELISA, supernatant stoste, coated OX40 (CK60)
T1 construct: extracellular domain; bought protein; also called recombinant human OX40 antigen protein; human OX40 extracellular segment antigen; not shown: 6 His label
T1 sequence (looked up): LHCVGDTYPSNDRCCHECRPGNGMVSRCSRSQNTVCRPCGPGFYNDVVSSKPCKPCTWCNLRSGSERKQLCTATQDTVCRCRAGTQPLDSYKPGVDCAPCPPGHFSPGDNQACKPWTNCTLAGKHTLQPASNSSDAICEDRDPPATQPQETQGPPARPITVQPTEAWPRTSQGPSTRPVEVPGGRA

hOX40-EC-His [2] = target: T1, hOX40-EC-His; assay: ELISA, supernatant diluted 100 times, coated OX40 (CK60)
[3] = target: T2, OX40 on OX40 over-expressed cells (UniProt P43489 29-277); assay: flow cytometry, supernatant on OX40 over-expressed cells
T2 construct: whole, on cells; human implied; also called OX40 expressed on the surface of OX40 expressing cell
T2 sequence (looked up): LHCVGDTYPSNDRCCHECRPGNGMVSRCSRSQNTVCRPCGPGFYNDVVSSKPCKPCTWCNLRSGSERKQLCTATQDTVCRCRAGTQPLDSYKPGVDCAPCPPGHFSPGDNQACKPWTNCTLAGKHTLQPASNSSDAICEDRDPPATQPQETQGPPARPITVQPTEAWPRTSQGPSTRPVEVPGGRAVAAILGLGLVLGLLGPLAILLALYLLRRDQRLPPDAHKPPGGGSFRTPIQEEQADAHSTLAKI
Description: After collecting OX40 over-expressed cells by 200G centrifugation, wash them with PBS containing 3% FCS, and then resuspend them in 2.5 ml of PBS containing 3% FCS. […] Finally, the cells were resuspended in […] of PBS containing 3% FCS for detection by flow cytometry.

hOX40-EC-His [4] = target: T1, hOX40-EC-His; assay: ELISA, supernatant 1:100, coated hOX40-EC-His

B1: 48D10-5 (antibody, V domains shown)
VH: QVQLVQSGAEVKKPGASMKVSCKASGYTFANFGINWVRQAPGQGLEWMGWISAYNGYTNYAQQFQGRITMTTDTSTSTAYMELRSLRSDDTAIYYCVIWFGELLSFDYWGQGTLVTVSS
VL: DIQMTQFPSSLSASVGDRVTITCRASQDISNYLAWFQQKPGKAPKSLIYAASSLQSGVPSKFSGNGFGTDFTFPLSRMQPEDFASSYCQQYNNYTFTFGRGTKVEIKR
notes: hybridoma antibody, tested as culture supernatant
- 450 nm light absorption (hOX40-EC-His [1]): 2.45 OD450
- 450 nm light absorption (hOX40-EC-His [2]): 2.35 OD450
- Y586 channel PE fluorescence value [3]: 358000

B2: 24F10-1 (antibody, V domains shown)
VH: QVQLQESGPGLVKPSGNLSLTCVVSGASIINNNWWTWVRQSPGKGLEWIGEIFHSGTTNYNPSLKNRVTISVDKAKNQFSLNLKSVTAADTAVYYCVAYVSGTYYNFDYWGQGTLVTVSS
VL: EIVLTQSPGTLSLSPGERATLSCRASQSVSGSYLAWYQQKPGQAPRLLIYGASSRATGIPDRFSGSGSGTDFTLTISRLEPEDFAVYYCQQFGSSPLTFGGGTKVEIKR
notes: as for B1
- 450 nm light absorption (hOX40-EC-His [1]): 2.41 OD450
- 450 nm light absorption (hOX40-EC-His [2]): 2.2 OD450
- Y586 channel PE fluorescence value [3]: 274000

B3: 28E3-4 (antibody, V domains shown)
VH: QVQLQESGPGLVKPSGTLSLTCAVSGGSISRSNWWTWVRQSPGKGLEWIGEIYHSGNTNYNPSLKSRVTISLDKSKNQFSLKLSSVTAADTAVYYCASSGSLYMDVWGKGTTVTVSS
VL: DIQMTQSPSSLSASVGDRVTISCRASQSTSSYLNWYQQKPGKAPRLLIYGASSLQSGVPSRFSGSGSGTDFILTISSLQPEDFATYYCQQSYSIPITFGQGTRLEIKR
notes: as for B1
- IgG ELISA (1:100) (hOX40-EC-His [4]): 2.1 OD650
- 450 nm light absorption (hOX40-EC-His [1]): 2.27 OD450
- 450 nm light absorption (hOX40-EC-His [2]): 2.26 OD450
- Y586 channel PE fluorescence value [3]: 195000

B4: 29B8-3 (antibody, V domains shown)
VH: QVQLQESGPGLVKPSGTLSLTCAVSGVSISSSNWWSWVRQPPGKGLEWIGEIYHSGNTNYNPSLKSRVTISVDKSKNQFSLKLSSVTAADTAVYYCAETSTITTNYWGQGTLVTVSS
VL: DIQMTQSPSSLSASVGDRVTITCRASQTISSYLNWYQQKPGKAPKLLIYAASSLQSGVPSRFSGSESGTDFTLTISSLQPEDFATYYCQQTYSIPITFGQGTRLEIKR
notes: as for B1
- 450 nm light absorption (hOX40-EC-His [1]): 2.46 OD450
- 450 nm light absorption (hOX40-EC-His [2]): 2.36 OD450
- Y586 channel PE fluorescence value [3]: 388000

B5: 4D9-12 (antibody, V domains shown)
VH: QVQLQESGPGLVKPSGTLSLTCAVSGGSISSSNWWSWVRQPPGKGLEWIGEIYHSGNTIYNPSLKSRVTISLDKSKNQFSLKLSSVTAADTAVYYCASSGSLYMDVWGKGTTVTVSS
VL: DIQMTQSPSSLLSSVGDRVTISCRASHGSSTYLNWYQQKPGKAPRLLIYGASSLQSGVPSRFSGSGFGTDFILTISSMQPEDFATYYCQQSYSIPITFGQGTRLEIKR
notes: as for B1
- IgG ELISA (1:100) (hOX40-EC-His [4]): 2.3 OD650
- 450 nm light absorption (hOX40-EC-His [1]): 2.39 OD450
- 450 nm light absorption (hOX40-EC-His [2]): 1.26 OD450
- Y586 channel PE fluorescence value [3]: 187000

B6: 15A7-6 (antibody, V domains shown)
VH: QVQLQESGPGLVKPSGTLSLTCAVSGGSINSSSWWSWVRQPPGKGLEWIGEIYHSGDTNYNPSLKSRVAISVDKSKNQFSLKLSSVTAADTAVYYCARDQADYFGSGNYVYWGQGTLVTVSS
VL: EIVLMQYPGTLSLSSGERRVLSCRPSQSVSSSYLAWYQQKPGQAPRLLIYGASSRASGIPDRFSGSGSGTDFTLTISRLEPEDFAVYYCQQYGSLPITFGQGTRVEIKR
notes: as for B1
- 450 nm light absorption (hOX40-EC-His [1]): 2.25 OD450
- 450 nm light absorption (hOX40-EC-His [2]): 1.4 OD450
- Y586 channel PE fluorescence value [3]: 181000

B7: 24E10-4 (antibody, V domains shown)
VH: QVQMQESGPGLVKPSGTLSLTCAVSGGSISSSKWWSWVRQPPGKGLEWIGEIYHSGSTNYNPSLKSRVTISIDKSKNQFSLRLTSVTAADTAVYYCARGDVLLWFGGQGTLVTVSS
VL: EIVLTQSPGTLSLSPGERATLSCWASQSVSSTYLAWYQQKPGQAPRLLIYGASIRATGIPDRFSGSGSGTDFTLTISSLEPEDFAVYYCQQYGSSPITFGQGTRLEIKR
notes: as for B1
- 450 nm light absorption (hOX40-EC-His [1]): 2.51 OD450
- 450 nm light absorption (hOX40-EC-His [2]): 2.4 OD450
- Y586 channel PE fluorescence value [3]: 344000

B8: 26C3-4 (antibody, V domains shown)
VH: QVQLQESGPGLVKPSGTLSLTCDVSGGSISSSNWWSWVRQPPGKGLEWIGEIYHSGSTNYNPSLKSRVTISVDKSKNQVSLKLNSVTAADTAVYYCARGDILLWFGGQGTLVTVSS
VL: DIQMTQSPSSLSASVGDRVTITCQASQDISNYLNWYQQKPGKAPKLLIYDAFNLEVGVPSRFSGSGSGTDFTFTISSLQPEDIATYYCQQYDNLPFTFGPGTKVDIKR
notes: as for B1
- 450 nm light absorption (hOX40-EC-His [1]): 2.32 OD450
- 450 nm light absorption (hOX40-EC-His [2]): 1.91 OD450
- Y586 channel PE fluorescence value [3]: 416000

B9: 17D5-11 (antibody, V domains shown)
VH: QVQLQESGPGLVKPSETLSLTCAVSGGSINSTNWWSWVRQPPGKGLEWIGEIYHSGSTNYNPSLKSRVTISVDKSKNQFSLKLSSVTAADTAVYYCARGGAVALDYWGQGTLVTVSS
VL: EIVLTQSPGPLSLSPGDRATLSCRASQTVSSSYLAWYLQKPGQAPRLLIYGASIRATGIPDRFSGSGSGTDFTLTISRLEPEDFAVYYCQQYGNSPITFGQGTRLEIKR
notes: as for B1
- 450 nm light absorption (hOX40-EC-His [1]): 2.46 OD450
- 450 nm light absorption (hOX40-EC-His [2]): 2.32 OD450
- Y586 channel PE fluorescence value [3]: 475000

B10: 18F5-2 (antibody, V domains shown)
VH: QVQMQESGPGLVKPSGTLSLICAVSGGSISSSKWWSWVRQPPGKGLEWIGEIYHSGSTNYNPSLKSRVTISIDKSKNQFSLRLTSVTAADTAVYYCARGDVLLWFGGQGTLVTVSS
VL: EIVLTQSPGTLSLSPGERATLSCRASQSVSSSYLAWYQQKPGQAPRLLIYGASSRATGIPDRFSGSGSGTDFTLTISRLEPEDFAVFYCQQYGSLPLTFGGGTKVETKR
notes: as for B1
- 450 nm light absorption (hOX40-EC-His [1]): 2.35 OD450
- 450 nm light absorption (hOX40-EC-His [2]): 2.2 OD450
- Y586 channel PE fluorescence value [3]: 432000

B11: 21F3-11 (antibody, V domains shown)
VH: QVQLQESGPGLVKPSGTLSLTCAVSGGSISSSNWWSWVRQPPGKGLEWIGEIYHGGSTNYNPSLKSRITISVDKSKNQFSLKLSSVTAADTAMYYCATLPGYSSGWFDSWGQGTLVTVSS
VL: EIVLMQSPGTLSLSPGERATLSCRASQSVSSSYLAWYQQKPGQAPSLLIYGASNRASGIPDRFSGSGSGTDFTLTITRLEPEDFAVYYCQQYGSSPLTFGGGTRVEIKR
notes: as for B1
- IgG ELISA (1:100) (hOX40-EC-His [4]): 1.9 OD650
- 450 nm light absorption (hOX40-EC-His [1]): 2.58 OD450
- 450 nm light absorption (hOX40-EC-His [2]): 2.61 OD450
- Y586 channel PE fluorescence value [3]: 171000

B12: 24A12-12 (antibody, V domains shown)
VH: QVQLQESGPGLVKPAGTLSLTCAVSGGSISSSNWWNWVRQPPGKGLEWIGEIYHSGSTNYNPSLKSRVTISVDTSKNQFSLKLTSVTAADTAVYYCARTGPTVTTDYWGQGTLVTVSS
VL: EIVLTQSPGTLSLSPGERATLSCRASQSVSSSYLAWYQQKPGQAPRLLIYGASYRATGMPERFSGSGSGTDFTLTISRLEPEDFAIYYCQQYGRSPLTFGGGTKVEIKR
notes: as for B1
- 450 nm light absorption (hOX40-EC-His [1]): 2.81 OD450
- 450 nm light absorption (hOX40-EC-His [2]): 2.8 OD450
- Y586 channel PE fluorescence value [3]: 343000

B13: 20D2-12 (antibody, V domains shown)
VH: QVQLVESGGGLVKPGGSLRLSCAASGFTFSDYYMSWIRQAPGRGLEWISYISGSDSTIYYEDSVMGRFTISRDNAKNSLYLQMNSLRAEDTAVYYCARDRDVYGYSGYGYFDYWGQGTLVTVSS
VL: EIVLTQSPGTLSLSPGERATLSCRASQSVSSRYLAWYQQKPGQAPRLLIYGASNRATGMPDRFSGSGSGTDFTLTISRLEPEDFAVYYCQQYGSSPITFGQGTRLEIKR
notes: as for B1
- 450 nm light absorption (hOX40-EC-His [1]): 3.81 OD450
- 450 nm light absorption (hOX40-EC-His [2]): 2.32 OD450
- Y586 channel PE fluorescence value [3]: 540000

B14: 24F8-7 (antibody, V domains shown)
VH: QVQLQESGPGLVKPSGTLSLTCAVSGGSISSYNWWSWVRQPPGKGLEWIGEIYHSGSTNYNPSLKSRVTISVDKSKNQFSLKLSSVTAADTAVYYCARDEDYYGSGNYYHWGQGTLVTVSS
VL: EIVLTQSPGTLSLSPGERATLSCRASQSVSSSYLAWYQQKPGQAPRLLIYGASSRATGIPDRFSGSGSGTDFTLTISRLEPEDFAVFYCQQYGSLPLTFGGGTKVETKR
notes: as for B1
- 450 nm light absorption (hOX40-EC-His [1]): 2.4 OD450
- 450 nm light absorption (hOX40-EC-His [2]): 2.14 OD450
- Y586 channel PE fluorescence value [3]: 437000

B15: 18F11-4 (antibody, V domains shown)
VH: QVQLQESGPGLVKPSGTLSLTCAVSGGSISSYNWWSWVRQPPGKGLEWIGEIYHSGSTNYNPSLKSRVTISVDKSKNQFSLKLSSVTAADTAVYYCARDEDYYGSGNYYHWGQGTLVTVSS
VL: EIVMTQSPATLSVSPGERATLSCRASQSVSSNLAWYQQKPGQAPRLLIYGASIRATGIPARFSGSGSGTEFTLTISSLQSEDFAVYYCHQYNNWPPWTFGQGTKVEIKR
notes: as for B1
- 450 nm light absorption (hOX40-EC-His [1]): 1.87 OD450
- 450 nm light absorption (hOX40-EC-His [2]): 1.32 OD450
- Y586 channel PE fluorescence value [3]: 402000

B16: 21F9-12 (antibody, V domains shown)
VH: QVQLQESGPGLVKPSGTLSLTCAVSGGSISSYNWWSWVRQPPGKGLEWIGEIYHSGNTNYNPSLKSRVTISVDKSKNQFSLKLSSVTAADTAMYYCARDQDYYGSGNFYYWGQGTLVTVSS
VL: not shown
notes: as for B1
- 450 nm light absorption (hOX40-EC-His [1]): 2.37 OD450
- 450 nm light absorption (hOX40-EC-His [2]): 2 OD450
- Y586 channel PE fluorescence value [3]: 424000

B17: 29A9-5 (antibody, V domains shown)
VH: QVQLQESGPGLVKPSGTLSLTCAVFGDSISSSYWWSWVRQPPGKGLEWIGEIYHSGSTHYNPSLKSRVTISVDKSKNHLSLKLISVTDADTAVYYCAGEDTGWPFDFWGQGTLVTVSS
VL: not shown
notes: as for B1
- 450 nm light absorption (hOX40-EC-His [1]): 1.93 OD450
- 450 nm light absorption (hOX40-EC-His [2]): 0.878 OD450
- Y586 channel PE fluorescence value [3]: 221000
